The values below come from FireProtDB (doi:10.1016/0022-2836(92)90564-z).

Where “and” joins values, the source holds several entries; their conditions need not be identical. Equal entries are not always repeated.

B1: Ribonuclease, P00648 (parent)
chain: MMKMEGIALKKRLSWISVCLLVLVSAAGMLFSTAAKTETSSHKAHTEAQVINTFDGVADYLQTYHKLPDNYITKSEAQALGWVASKGNLADVAPGKSIGGDIFSNREGKLPGKSGRTWREADINYTSGFRNSDRILYSSDWLIYKTTDHYQTFTKIR

Variants of B1 are the subject of this data set. The note with it: Bacillus amyloliquefaciens; pH 6.3; 25 °C; Urea; Fluorescence; MES 1.00 M; NaCl 613 mM; reversible: yes; structure 1BNI; whole UniProt chain shown.
For MMKMEGIALKKRLSWISVCLLVLVSAAGMLFSTAAKTETSSHKAHTEAQVINTFDGVADYLQTYHKLPDNYITKSEAQALGWVASKGNLADVAPGKSIGGDIFSNREGKLPGKSGRTWREADINYTSGFRNSDRILYSSDWLIYKTTDHYQTFTKVR, the “ddG of mutation (higher = less stable)” value is 0.82 kcal/mol.

As to MMKMEGIALKKRLSWISVCLLVLVSAAGMLFSTAAKTETSSHKAHTEAQVINTFDGVADYLQTYHKLPDNYITKSEAQALGWVASKGNLADVAPGKSIGGDIFSNREGKLPGKSGRTWREADINYTSGFRNSDRILYSSDWLIYKTTDHYQTFTKAR, the “ddG of mutation (higher = less stable)” value was 2.22 kcal/mol and 1.4 kcal/mol.

Turning to MMKMEGIALKKRLSWISVCLLVLVSAAGMLFSTAAKTETSSHKAHTEAQVINTFDGVADYLQTYHKLPDNYITKSEAQALGWVASKGNLADVAPGKSIGGNIFSNREGKLPGKSGRTWREADINYTSGFRNSDRILYSSDWLIYKTTDHYQTFTKIR, the “ddG of mutation (higher = less stable)” value is 2.42 kcal/mol.

For MMKMEGIALKKRLSWISVCLLVLVSAAGMLFSTAAKTETSSHKAHTEAQVINTFDGVADYLQTYHKLPDNYITKSEAQALGWVASKGNLADVAPGKSIGGAIFSNREGKLPGKSGRTWREADINYTSGFRNSDRILYSSDWLIYKTTDHYQTFTKIR, the “ddG of mutation (higher = less stable)” value was found to be 3.1 kcal/mol.

Turning to MMKMEGIALKKRLSWISVCLLVLVSAAGMLFSTAAKTETSSHKAHTEAQVINTFDGVADYLQTYHKLPDNYITKSEAQALGWVASKGDLADVAPGKSIGGDIFSNREGKLPGKSGRTWREADINYTSGFRNSDRILYSSDWLIYKTTDHYQTFTKIR, the “ddG of mutation (higher = less stable)” value was found to be 2.51 kcal/mol.

For the variant MMKMEGIALKKRLSWISVCLLVLVSAAGMLFSTAAKTETSSHKAHTEAQVINTFDGVADYLQTYHKLPDNYITKSEAQALGWVASKGNLADVAPGKSIGGDIFSNREGKLPGKSGRTWREADINYTSGFRNSDRILYSSDWLAYKTTDHYQTFTKIR, the “ddG of mutation (higher = less stable)” value was determined as 2.37 kcal/mol.

On to MMKMEGIALKKRLSWISVCLLVLVSAAGMLFSTAAKTETSSHKAHTEAQVINTFDGVADYLQTYHKLPDNYITKSEAQALGWAASKGNLADVAPGKSIGGDIFSNREGKLPGKSGRTWREADINYTSGFRNSDRILYSSDWLIYKTTDHYQTFTKIR, for which the “ddG of mutation (higher = less stable)” value turned out to be 1.34 kcal/mol.

As to MMKMEGIALKKRLSWISVCLLVLVSAAGMLFSTAAKTETSSHKAHTEAQVINTFDGVADYLQTYHKLPDNYITKSEAQALGWVASKGNLADVAPGKSIGGDIFSNREGKLPGKSGRTWREADVNYTSGFRNSDRILYSSDWLIYKTTDHYQTFTKIR, the “ddG of mutation (higher = less stable)” value came to 0.88 kcal/mol.

As to MMKMEGIALKKRLSWISVCLLVLVSAAGMLFSTAAKTETSSHKAHTEAQVINTFDGVADYLQTYHKLPDNYITKSEAQALGWVASKGNLADVAPGKSIGGDIFSNREGKLPGKSGRTWREADANYTSGFRNSDRILYSSDWLIYKTTDHYQTFTKIR, the “ddG of mutation (higher = less stable)” value was 2.04 kcal/mol and 1.16 kcal/mol.

In the case of MMKMEGIALKKRLSWISVCLLVLVSAAGMLFSTAAKTETSSHKAHTEAQVINTFDGVADYLQTYHKLPDNYITKSEAQALGWVASKGNLADVAPGKSIGGDIFSNREGKLPGKSGRTWREADINYTSGFRNSDRILYSSDWLIYKTTDHYQVFTKIR, the “ddG of mutation (higher = less stable)” value was determined as 2.25 kcal/mol.

In the case of MMKMEGIALKKRLSWISVCLLVLVSAAGMLFSTAAKTETSSHKAHTEAQVINTFDGVADYLQTYHKLPDNYITKSGAQALGWVASKGNLADVAPGKSIGGDIFSNREGKLPGKSGRTWREADINYTSGFRNSDRILYSSDWLIYKTTDHYQTFTKIR, the “ddG of mutation (higher = less stable)” value stood at 1.9 kcal/mol.

MMKMEGIALKKRLSWISVCLLVLVSAAGMLFSTAAKTETSSHKAHTEAQVINTFDGVADYLQTYHKLPDNYITKSEAQALGWVASKGNLADVAPGKSIGGDIFSNREGKLPGKSGRTWREADINYTSGFRASDRILYSSDWLIYKTTDHYQTFTKIR: the “ddG of mutation (higher = less stable)” value came to 2.24 kcal/mol.

MMKMEGIALKKRLSWISVCLLVLVSAAGMLFSTAAKTETSSHKAHTEAQVINTFDGVADYLQTYHKLPDNYITKSEAQALGWVASKGNLADVAPGKSIGGDIFSAREGKLPGKSGRTWREADINYTSGFRNSDRILYSSDWLIYKTTDHYQTFTKIR: the “ddG of mutation (higher = less stable)” value was found to be 2.17 kcal/mol.

In the case of MMKMEGIALKKRLSWISVCLLVLVSAAGMLFSTAAKTETSSHKAHTEAQVINTFDGVADYLQTYHKLPDNYITKSEAQALGWVASKGNLADVAPGKSIGGDIFSNREGKLPGKSGRTWREADINYTSGFRNSDRILYSADWLIYKTTDHYQTFTKIR, the “ddG of mutation (higher = less stable)” value is 2.74 kcal/mol.

On to MMKMEGIALKKRLSWISVCLLVLVSAAGMLFSTAAKTETSSHKAHTEAQVIATFDGVADYLQTYHKLPDNYITKSEAQALGWVASKGNLADVAPGKSIGGDIFSNREGKLPGKSGRTWREADINYTSGFRNSDRILYSSDWLIYKTTDHYQTFTKIR, for which the “ddG of mutation (higher = less stable)” value was 2.06 kcal/mol.

Turning to MMKMEGIALKKRLSWISVCLLVLVSAAGMLFSTAAKTETSSHKAHTEAQVINTFDGVADYLQTYHKLPDNYITKSEAQALGWVASKGNLADVAPGKSIGGDIFSNREGKLPGKSGRTWREADINYTSGFRNSDRIVYSSDWLIYKTTDHYQTFTKIR, the “ddG of mutation (higher = less stable)” value amounted to 0.03 kcal/mol.

Take MMKMEGIALKKRLSWISVCLLVLVSAAGMLFSTAAKTETSSHKAHTEAQVINTFDGVADYLQTYHKLPDNYITKSEAQALGWVASKGNLADVAPGKSIGGDIFSNREGKLPGKSGRTWREADINYTSGFRNSDRITYSSDWLIYKTTDHYQTFTKIR: the “ddG of mutation (higher = less stable)” value is 2.9 kcal/mol and 2.55 kcal/mol.

On to MMKMEGIALKKRLSWISVCLLVLVSAAGMLFSTAAKTETSSHKAHTEAQVINTFDGVADYLQTYHKLPDNYITKSEAQALGWVASKGNLADVAPGKSIGGDIFSNREGKLPGKSGRTWREADINYTSGFRNSDRALYSSDWLIYKTTDHYQTFTKIR, for which the “ddG of mutation (higher = less stable)” value turned out to be 2.76 kcal/mol.

MMKMEGIALKKRLSWISVCLLVLVSAAGMLFSTAAKTETSSHKAHTEAQVINTFDGVADYLQTYHKLPDNYITKSEAQALGWVASKGNLADVAPGKSIGGDIFSNREGKLPGKSGRTWREADINYTSGFRNSDRILYASDWLIYKTTDHYQTFTKIR: the “ddG of mutation (higher = less stable)” value amounted to 1.93 kcal/mol.

With MMKMEGIALKKRLSWISVCLLVLVSAAGMLFSTAAKTETSSHKAHTEAQVVNTFDGVADYLQTYHKLPDNYITKSEAQALGWVASKGNLADVAPGKSIGGDIFSNREGKLPGKSGRTWREADINYTSGFRNSDRILYSSDWLIYKTTDHYQTFTKIR, the “ddG of mutation (higher = less stable)” value worked out at 0.67 kcal/mol.

As for MMKMEGIALKKRLSWISVCLLVLVSAAGMLFSTAAKTETSSHKAHTEAQVANTFDGVADYLQTYHKLPDNYITKSEAQALGWVASKGNLADVAPGKSIGGDIFSNREGKLPGKSGRTWREADINYTSGFRNSDRILYSSDWLIYKTTDHYQTFTKIR, the “ddG of mutation (higher = less stable)” value is 1.5 kcal/mol and 0.83 kcal/mol.

Take MMKMEGIALKKRLSWISVCLLVLVSAAGMLFSTAAKTETSSHKAHTEAQVINTFDGVADYLQTYHKLPDNYITKSEAQALGWVASKGNLADVAPGKSIGGDIFSNREGRLPGKSGRTWREADINYTSGFRNSDRILYSSDWLIYKTTDHYQTFTKIR: the “ddG of mutation (higher = less stable)” value amounted to 0.43 kcal/mol.

MMKMEGIALKKRLSWISVCLLVLVSAAGMLFSTAAKTETSSHKAHTEAQVINTFDGVADYLQTYHKLPDNYITKSEAQALGWVASKGNLADVAPGKSVGGDIFSNREGKLPGKSGRTWREADINYTSGFRNSDRILYSSDWLIYKTTDHYQTFTKIR: the “ddG of mutation (higher = less stable)” value was 1.85 kcal/mol.

Regarding MMKMEGIALKKRLSWISVCLLVLVSAAGMLFSTAAKTETSSHKAHTEAQVINTFDGVADYLQTYHKLPDNYITKSEAQALGWVASKGNLADVAPGKSIGGDIFSNREGKLPGKSGRTWREADIAYTSGFRNSDRILYSSDWLIYKTTDHYQTFTKIR, the “ddG of mutation (higher = less stable)” value stood at 1.88 kcal/mol.

Turning to MMKMEGIALKKRLSWISVCLLVLVSAAGMLFSTAAKTETSSHKAHTEAQVINTFDGVADYLQTYHKLPDNYITKSEAQALGWVASKGNLADTAPGKSIGGDIFSNREGKLPGKSGRTWREADINYTSGFRNSDRILYSSDWLIYKTTDHYQTFTKIR, the “ddG of mutation (higher = less stable)” value is 2.44 kcal/mol.

Turning to MMKMEGIALKKRLSWISVCLLVLVSAAGMLFSTAAKTETSSHKAHTEAQVINTFDGVADYLQTYHKLPDNYITKSEAQALGWVASKGNLADAAPGKSIGGDIFSNREGKLPGKSGRTWREADINYTSGFRNSDRILYSSDWLIYKTTDHYQTFTKIR, the “ddG of mutation (higher = less stable)” value stood at 1.83 kcal/mol.

As to MMKMEGIALKKRLSWISVCLLVLVSAAGMLFSTAAKTETSSHKAHTEAQVINTFDGVADYLQTYHKLPDNYITKSEAQALGWVASKGNLADVAPGKSIGGDTFSNREGKLPGKSGRTWREADINYTSGFRNSDRILYSSDWLIYKTTDHYQTFTKIR, the “ddG of mutation (higher = less stable)” value was 1 kcal/mol.

As to MMKMEGIALKKRLSWISVCLLVLVSAAGMLFSTAAKTETSSHKAHTEAQVINTFDGVADYLQTYHKLPDNYITKSEAQALGWVASKGNLADVAPGKSIGGDAFSNREGKLPGKSGRTWREADINYTSGFRNSDRILYSSDWLIYKTTDHYQTFTKIR, the “ddG of mutation (higher = less stable)” value worked out at 1.28 kcal/mol.

As to MMKMEGIALKKRLSWISVCLLVLVSAAGMLFSTAAKTETSSHKAHTEAQVINTFDGAADYLQTYHKLPDNYITKSEAQALGWVASKGNLADVAPGKSIGGDIFSNREGKLPGKSGRTWREADINYTSGFRNSDRILYSSDWLIYKTTDHYQTFTKIR, the “ddG of mutation (higher = less stable)” value amounted to 3.63 kcal/mol.

For MMKMEGIALKKRLSWISVCLLVLVSAAGMLFSTAAKTETSSHKAHTEAQVINTFDGTADYLQTYHKLPDNYITKSEAQALGWVASKGNLADVAPGKSIGGDIFSNREGKLPGKSGRTWREADINYTSGFRNSDRILYSSDWLIYKTTDHYQTFTKIR, the “ddG of mutation (higher = less stable)” value was determined as 2.58 kcal/mol.

For the variant MMKMEGIALKKRLSWISVCLLVLVSAAGMLFSTAAKTETSSHKAHTEAQVINTFDGVADYLQTYHKLPDNYVTKSEAQALGWVASKGNLADVAPGKSIGGDIFSNREGKLPGKSGRTWREADINYTSGFRNSDRILYSSDWLIYKTTDHYQTFTKIR, the “ddG of mutation (higher = less stable)” value was 1.18 kcal/mol.
